Measured values reported in patent US20200071404A1.

Molecular target: human CD73 expressed on cells (cancer cell line NCI-H1373 endogenously expressing human CD73; human T cell expressing human CD73) (human) (UniProt P21589)
Assay: cell-based or functional assay

human CD73 expressed on cells (cancer cell line NCI-H1373 endogenously expressing human CD73; human T cell expressing human CD73) (human), sequence (P21589 27-549): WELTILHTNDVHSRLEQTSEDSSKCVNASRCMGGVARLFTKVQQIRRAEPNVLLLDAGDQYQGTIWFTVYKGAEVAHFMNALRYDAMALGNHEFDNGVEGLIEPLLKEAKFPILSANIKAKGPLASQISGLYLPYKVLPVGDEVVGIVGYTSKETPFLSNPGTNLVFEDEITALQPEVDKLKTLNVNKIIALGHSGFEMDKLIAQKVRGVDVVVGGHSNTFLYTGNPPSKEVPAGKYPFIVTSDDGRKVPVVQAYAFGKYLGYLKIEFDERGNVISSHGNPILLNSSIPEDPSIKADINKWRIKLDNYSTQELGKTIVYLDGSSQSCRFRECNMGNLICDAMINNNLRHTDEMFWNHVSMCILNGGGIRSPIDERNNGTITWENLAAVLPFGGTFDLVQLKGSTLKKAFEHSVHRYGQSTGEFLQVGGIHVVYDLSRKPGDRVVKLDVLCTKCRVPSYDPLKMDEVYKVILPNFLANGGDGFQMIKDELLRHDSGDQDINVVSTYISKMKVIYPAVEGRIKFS

EC50 (ng/mL), IFNγ; recovery of AMP-dependently suppressed human T cell functions: 132 ng/mL
EC50 (ng/mL), Proliferation of T cells; recovery of AMP-dependently suppressed human T cell functions: 357 ng/mL
B1: 6E1 (antibody, from another filing, V domains shown)
VH: EFQLQQSGPELVKPGASVKVSCKASGYAFTSYNMYWVKQSHGKRLEWIGYIDPYNGGSSYNQKFKGKATLTVDKSSSTAYMHLNNLTSEDSAVYYCARGYNNYKAWFAYWGQGTLVTVSA
VL: SIVMTQTPKFLLVSAGDRVTITCKASQSVTNDVAWYQQKPGQSPKLLIYYASNRYTGVPDRFTGSGYGTDFTFTISTMQAEDLAVYFCQQDYSSLTFGAGTKLELK
